From US20180161335

T1: RAB11A, N-terminal 6x His-tag, purified from E. coli, preloaded with BODIPY FL GDP, P62491
T1 chain: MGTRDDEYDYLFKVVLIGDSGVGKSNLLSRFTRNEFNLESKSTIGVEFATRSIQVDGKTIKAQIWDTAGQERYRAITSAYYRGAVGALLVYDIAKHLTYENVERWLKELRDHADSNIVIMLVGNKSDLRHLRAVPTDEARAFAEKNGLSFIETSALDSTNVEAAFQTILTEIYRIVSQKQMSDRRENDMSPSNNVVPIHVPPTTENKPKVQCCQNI

T2: RAB5A, N-terminal 6x His-tag, purified from E. coli, preloaded with BODIPY FL GDP, P20339
T2 chain: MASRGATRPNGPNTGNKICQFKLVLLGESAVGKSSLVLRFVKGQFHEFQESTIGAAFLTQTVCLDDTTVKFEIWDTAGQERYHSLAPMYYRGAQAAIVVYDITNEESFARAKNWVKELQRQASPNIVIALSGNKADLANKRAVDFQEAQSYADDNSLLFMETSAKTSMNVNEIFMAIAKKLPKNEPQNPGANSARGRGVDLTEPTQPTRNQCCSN

B1: RABEX5, 2x HA-tagged, in HEK cell lysate (protein)
chain: MSLKSERRGIHVDQSDLLCKKGCGYYGNPAWQGFCSKCWREEYHKARQKQIQEDWELAERLQREEEEAFASSQSSQGAQSLTFSKFEEKKTNEKTRKVTTVKKFFSASSRVGSKKEIQEAKAPSPSINRQTSIETDRVSKEFIEFLKTFHKTGQEIYKQTKLFLEGMHYKRDLSIEEQSECAQDFYHNVAERMQTRGKVPPERVEKIMDQIEKYIMTRLYKYVFCPETTDDEKKDLAIQKRIRALRWVTPQMLCVPVNEDIPEVSDMVVKAITDIIEMDSKRVPRDKLACITKCSKHIFNAIKITKNEPASADDFLPTLIYIVLKGNPPRLQSNIQYITRFCNPSRLMTGEDGYYFTNLCCAVAFIEKLDAQSLNLSQEDFDRYMSGQTSPRKQEAESWSPDACLGVKQMYKNLDLLSQLNERQERIMNEAKKLEKDLIDWTDGIAREVQDIVEKYPLEIKPPNQPLAAIDSENVENDKLPPPLQPQVYAG
B2: C9ORF72 isoform B, 2x HA-tagged, in HEK cell lysate (protein)
chain: MSTLCPPPSPAVAKTEIALSGKSPLLAATFAYWDNILGPRVRHIWAPKTEQVLLSDGEITFLANHTLNGEILRNAESGAIDVKFFVLSEKGVIIVSLIFDGNWNGDRSTYGLSIILPQTELSFYLPLHRVCVDRLTHIIRKGRIWMHKERQENVQKIILEGTERMEDQGQSIIPMLTGEVIPVMELLSSMKSHSVPEEIDIADTVLNDDDIGDSCHEGFLLK
B3: DENND2D, 2x HA-tagged, in HEK cell lysate (protein)
chain: MEGQVVGRVFRLFQRRLLQLRAGPPQDNSGEALKEPERAQEHSLPNFAGGQHFFEYLLVVSLKKKRSEDDYEPIITYQFPKRENLLRGQQEEEERLLKAIPLFCFPDGNEWASLTEYPRETFSFVLTNVDGSRKIGYCRRLLPAGPGPRLPKVYCIISCIGCFGLFSKILDEVEKRHQISMAVIYPFMQGLREAAFPAPGKTVTLKSFIPDSGTEFISLTRPLDSHLEHVDFSSLLHCLSFEQILQIFASAVLERKIIFLAEGLSTLSQCIHAAAALLYPFSWAHTYIPVVPESLLATVCCPTPFMVGVQMRFQQEVMDSPMEEVLLVNLCEGTFLMSVGDEKDILPPKLQDDILDSLGQGINELKTAEQINEHVSGPFVQFFVKIVGHYASYIKREANGQGHFQERSFCKALTSKTNRRFVKKFVKTQLFSLFIQEAEKSKNPPAGYFQQKILEYEEQKKQKKPREKTVK

How the values were obtained:
[1] = biological target: T1, RAB11A, N-terminal 6x His-tag, purified …
[2] = biological target: the other GTPases tested
[3] = biological target: ARF3, purified from E. coli, preloaded with BODIPY FL GDP, P61204
Sequence of ARF3, purified from E. coli, preloaded with BODIPY FL GDP, P61204 (P61204 whole entry): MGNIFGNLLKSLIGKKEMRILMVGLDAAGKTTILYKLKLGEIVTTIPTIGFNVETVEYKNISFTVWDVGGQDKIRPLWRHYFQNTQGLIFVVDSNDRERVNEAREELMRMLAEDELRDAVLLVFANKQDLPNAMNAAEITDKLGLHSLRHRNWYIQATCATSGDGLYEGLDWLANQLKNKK

[4] = biological target: T2, RAB5A, N-terminal 6x His-tag, purified …

Row | Protein | guanine exchange activity (BODIPY-GDP fluorescence) [1] | guanine exchange activity (BODIPY-GDP fluorescence) [2] | guanine exchange activity (BODIPY-GDP fluorescence) [3] | guanine exchange activity (BODIPY-GDP fluorescence) [4]
1 | B1 | neither RABEX-5, DENN2D, or DsRed displayed activity on RAB11A |  |  | 
2 | B2 |  | Significant activity was not observed using both C9ORF72 isoforms on the other GTPases tested | C9ORF72 isoforms A and B stimulated guanine exchange on ARF3 | 
3 | B3 | neither RABEX-5, DENN2D, or DsRed displayed activity on RAB11A |  |  | did not display guanine exchange activity on RAB5A
